This is an account of results in PMC5498468, “Exposure to the Epstein–Barr Viral Antigen Latent Membrane Protein 1 Induces Myelin-Reactive Antibodies In Vivo” (Frontiers in Immunology, 2017).

No end group written: not given here.

This test has as its target T1, Bovine myelin basic protein (MBP) (bovine, UniProt P02687 1-169).
T1 construct: Myelin basic protein, bovine
Nature of the test: ELISA + other: WB (methods) or immunoprecipitation (results); synthetic peptides with C-terminal Lys-biotin tested for binding of MBP and LMP1; one grade a pair for the two assays. Conditions: both partners purified.

T1 sequence (P02687 whole entry): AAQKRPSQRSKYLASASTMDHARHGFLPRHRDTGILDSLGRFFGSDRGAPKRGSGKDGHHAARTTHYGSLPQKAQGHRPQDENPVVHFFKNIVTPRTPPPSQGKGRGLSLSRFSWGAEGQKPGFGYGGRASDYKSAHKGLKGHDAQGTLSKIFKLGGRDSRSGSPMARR

B1: Synthesized biotinylated peptide P3, TYGGTFTDYLYNWVK (Bio) (peptide)
peptide: TYGGTFTDYLYNWVK
modifications: also: C-terminal Lys-biotin
notes: source: synthetic peptide (Shanghai Ruifu Chemical Co., Ltd.)
For the molecule B1, the binding result was “binds”.
